Experiment [1] addresses T1, recombinant human CD25 his tagged (UniProt P01589 22-213).
T1 chain: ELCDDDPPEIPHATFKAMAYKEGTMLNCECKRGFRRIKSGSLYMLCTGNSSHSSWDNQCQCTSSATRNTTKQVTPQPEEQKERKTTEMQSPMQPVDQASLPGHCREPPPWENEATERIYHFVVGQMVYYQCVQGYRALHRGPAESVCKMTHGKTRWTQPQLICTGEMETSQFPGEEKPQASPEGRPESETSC
The experiment in a line: SPR (Biacore 2000). A general note: Surface plasmon resonance follows binding to a sensor surface in real time, without labels.

Experiment [2] addresses T1, recombinant human CD25 his tagged. The experiment in a line: SPR (Biacore 2000).

For four molecules, Kd results are on record in patent US20210040221A1 (published 2021).

Like-named read-outs stand apart in the source and are kept apart here.

B1: Antibody 3 (antibody, V domains shown)
VH: EVQLLESGGGLVQPGGSLRLSCAASGFTFSSYGMSWVRQAPGKGLELVSTINGYGDTTYYPDSVKGRFTISRDNAKNTLYLQMNSLRAEDTAVYFCARDRDYGNSYYYALDYWGQGTLVTVSS
VL: EIVLTQSPGTLSLSPGERATLSCRASSSVSFMHWLQQKPGQAPRPLIYATSNLASGIPDRFSGSGSGTDYTLTISRLEPEDFAVYYCQQWSSNPPAFGQGTKLEIK
On to B1, for which the Kd (usually the free concentration of one partner at which half of the binding sites on the other are occupied at equilibrium, for simple one-to-one binding) in experiment [1] worked out at 6.1 nM.

B2: Antibody 1 (antibody, V domains shown)
VH: EVQLLESGGGLVQPGGSLRLSCAASGFTFSSYGMSWVRQAPGKGLELVSTINGYGDTTYYPDSVKGRFTISRDNSKNTLYLQMNSLRAEDTAVYYCARDRDYGNSYYYALDYWGQGTLVTVSS
VL: EIVLTQSPGTLSLSPGERATLSCRASSSVSFMHWLQQKPGQAPRPLIYATSNLASGIPDRFSGSGSGTDYTLTISRLEPEDFAVYYCQQWSSNPPAFGQGTKLEIK
Regarding B2, the dissociation constant Kd in experiment [2] amounted to 4.7 nM.

B3: Antibody 4 (antibody, V domains shown)
VH: EVQLLESGGGLVQPGGSLRLSCAASGFTFSSYGMSWVRQAPGKGLELVSTINGYGDTTYYPDSVKGRFTISRDNAKNTLYLQMNSLRAEDTAVYFCARDRDYGNSYYYALDYWGQGTLVTVSS
VL: QIVLTQSPGTLSLSPGERATLSCRASSSVSFMHWLQQKPGQSPRPLIYATSNLASGIPDRFSGSGSGTDYTLTISRLEPEDFAVYYCQQWSSNPPAFGQGTKLEIK
As for B3, the dissociation constant Kd in experiment [1] stood at 5.5 nM.

B4: Antibody 2 (antibody, V domains shown)
VH: EVQLLESGGGLVQPGGSLRLSCAASGFTFSSYGMSWVRQAPGKGLELVSTINGYGDTTYYPDSVKGRFTISRDNSKNTLYLQMNSLRAEDTAVYYCARDRDYGNSYYYALDYWGQGTLVTVSS
VL: QIVLTQSPGTLSLSPGERATLSCRASSSVSFMHWLQQKPGQSPRPLIYATSNLASGIPDRFSGSGSGTDYTLTISRLEPEDFAVYYCQQWSSNPPAFGQGTKLEIK
As to B4, the dissociation constant Kd in experiment [2] turned out to be 6.1 nM.
